Data published in publication PMC6887548 (Nature, 2019).
Blank lines part the entries; values can stand above or below the binder they belong to.

Key:
[1] = biological target: T1, Mcm2 (yeast, UniProt P29469); test: cryo-EM structure
T1 sequence: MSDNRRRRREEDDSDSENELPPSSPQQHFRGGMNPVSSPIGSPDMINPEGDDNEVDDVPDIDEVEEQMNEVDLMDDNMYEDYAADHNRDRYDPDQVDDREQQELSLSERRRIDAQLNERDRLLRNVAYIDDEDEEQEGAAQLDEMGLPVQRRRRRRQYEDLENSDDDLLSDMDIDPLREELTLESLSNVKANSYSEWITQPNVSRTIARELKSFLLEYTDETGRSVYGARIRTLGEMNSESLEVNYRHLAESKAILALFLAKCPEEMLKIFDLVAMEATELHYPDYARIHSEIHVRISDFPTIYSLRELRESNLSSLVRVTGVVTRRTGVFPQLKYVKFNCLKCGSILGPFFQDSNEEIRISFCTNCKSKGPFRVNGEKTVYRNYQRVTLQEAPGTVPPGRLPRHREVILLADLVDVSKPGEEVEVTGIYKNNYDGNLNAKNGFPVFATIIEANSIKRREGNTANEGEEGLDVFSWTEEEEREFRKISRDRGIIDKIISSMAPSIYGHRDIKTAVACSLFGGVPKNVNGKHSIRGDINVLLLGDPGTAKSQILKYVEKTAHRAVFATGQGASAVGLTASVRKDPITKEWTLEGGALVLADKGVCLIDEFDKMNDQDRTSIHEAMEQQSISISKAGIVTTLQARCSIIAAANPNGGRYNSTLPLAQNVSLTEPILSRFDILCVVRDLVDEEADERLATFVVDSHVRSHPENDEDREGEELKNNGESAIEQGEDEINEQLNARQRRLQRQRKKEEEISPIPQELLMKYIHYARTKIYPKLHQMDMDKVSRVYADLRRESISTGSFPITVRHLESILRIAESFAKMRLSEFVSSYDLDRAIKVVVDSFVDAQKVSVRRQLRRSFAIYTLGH

[2] = biological target: T2, Mcm5 (yeast, UniProt P29496); test: cryo-EM structure
T2 sequence: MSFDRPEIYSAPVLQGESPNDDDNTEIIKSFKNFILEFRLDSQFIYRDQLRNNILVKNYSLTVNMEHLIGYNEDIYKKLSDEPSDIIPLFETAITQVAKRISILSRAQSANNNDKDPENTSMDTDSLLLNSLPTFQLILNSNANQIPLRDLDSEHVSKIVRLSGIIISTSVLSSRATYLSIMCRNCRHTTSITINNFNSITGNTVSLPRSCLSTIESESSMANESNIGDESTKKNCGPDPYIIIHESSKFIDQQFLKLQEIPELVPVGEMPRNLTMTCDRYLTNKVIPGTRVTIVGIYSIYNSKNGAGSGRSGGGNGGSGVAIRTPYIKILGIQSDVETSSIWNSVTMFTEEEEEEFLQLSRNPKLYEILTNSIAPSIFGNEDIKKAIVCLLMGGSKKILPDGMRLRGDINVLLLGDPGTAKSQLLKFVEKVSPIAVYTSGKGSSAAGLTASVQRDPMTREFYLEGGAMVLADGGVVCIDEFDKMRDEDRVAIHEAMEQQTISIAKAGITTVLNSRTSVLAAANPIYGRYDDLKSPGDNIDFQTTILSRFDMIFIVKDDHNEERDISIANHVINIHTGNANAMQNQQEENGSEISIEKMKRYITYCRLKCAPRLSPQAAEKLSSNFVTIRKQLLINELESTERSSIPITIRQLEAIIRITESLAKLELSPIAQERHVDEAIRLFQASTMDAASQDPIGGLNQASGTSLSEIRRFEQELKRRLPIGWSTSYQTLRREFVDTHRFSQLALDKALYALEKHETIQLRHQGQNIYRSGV

[3] = biological target: origin recognition complex (ORC) (yeast, UniProt P54784;P32833;P54790;P54791;P50874;P38826); test: cryo-EM 2D class averages

binding result [1]: binds
binding result [2]: binds
B1: Orc6 (natural protein)
chain: MSMQQVQHCVAEVLRLDPQEKPDWSSGYLKKLTNATSILYNTSLNKVMLKQDEEVARCHICAYIASQKMNEKHMPDLCYYIDSIPLEPKKAKHLMNLFRQSLSNSSPMKQFAWTPSPKKNKRSPVKNGGRFTSSDPKELRNQLFGTPTKVRKSQNNDSFVIPELPPMQTNESPSITRRKLAFEEDEDEDEEEPGNDGLSLKSHSNKSITGTRNVDSDEYENHESDPTSEEEPLGVQESRSGRTKQNKAVGKPQSELKTAKALRKRGRIPNSLLVKKYCKMTTEEIIRLCNDFELPREVAYKIVDEYNINASRLVCPWQLVCGLVLNCTFIVFNERRRKDPRIDHFIVSKMCSLMLTSKVDDVIECVKLVKELIIGEKWFRDLQIRYDDFDGIRYDEIIFRKLGSMLQTTNILVTDDQYNIWKKRIEMDLALTEPL

binding result [3]: binds
B2: Cdc6 (natural protein)
chain: MSAIPITPTKRIRRNLFDDAPATPPRPLKRKKLQFTDVTPESSPEKLQFGSQSIFLRTKALLQKSSELVNLNSSDGALPARTAEYEQVMNFLAKAISEHRSDSLYITGPPGTGKTAQLDMIIRQKFQSLPLSLSTPRSKDVLRHTNPNLQNLSWFELPDGRLESVAVTSINCISLGEPSSIFQKIFDSFQDLNGPTLQIKNMQHLQKFLEPYHKKTTFVVVLDEMDRLLHANTSETQSVRTILELFLLAKLPTVSFVLIGMANSLDMKDRFLSRLNLDRGLLPQTIVFQPYTAEQMYEIVIQKMSSLPTIIFQPMAIKFAAKKCAGNTGDLRKLFDVLRGSIEIYELEKRFLLSPTRGSLNSAQVPLTPTTSPVKKSYPEPQGKIGLNYIAKVFSKFVNNNSTRTRIAKLNIQQKLILCTIIQSLKLNSDATIDESFDHYIKAITKTDTLAPLQRNEFLEICTILETCGLVSIKKTKCKGKTKRFVDKIDVDLDMREFYDEMTKISILKPFLH
